Experimental data from patent US20260083859A1, “SUSTAINED TRANSGENE EXPRESSION OF MODIFIED ERT2 PEPTIDE-SUICIDE PROTEIN FUSION POLYPEPTIDES” (Senti Biosciences, Inc., priority 2023, published 2026).
Entries after “also recorded” stand apart in the source; their conditions may differ.

Tests used:
iPSC clones = assay: Apoptotic efficacy in individual construct clones treated with 4-OHT, Endoxifen or combinations; assay type: cell-based, human; conditions: for apoptotic (killing) efficacy: 24 hours
Protocol: Next, individual clones that were determined to be suitable for further assessments were evaluated for 24 hours in the presence of 4-OHT at two different concentrations.
Individual Construct 1-4 clones were also assessed for their responses to another tamoxifen metabolite, Endoxifen. Clones were evaluated for 24 hours in the presence of Endoxifen at three different concentrations.
Tamoxifen is a prodrug that is broken down into its active metabolites in vivo. To model predicted drug concentrations in a patient, the clone Construct 1 c.165 was treated with various combinations of 4-OHT and Endoxifen, wherein 1.25 nM Endoxifen was combined with a concentration of 4-OHT ranging between 0.125 nM to 1 nM (FIG. 12A). […] In the next evaluation, 0.125 nM 4-OHT was combined with either 0.625 or 1.25 nM Endoxifen (FIG. 12B).

[1] = system: PSC-derived myeloid progenitor cells; assay: TamCasp9 Safety Switch activation in PSC-derived myeloid progenitor cells, AOPI staining, Incucyte SX5; assay type: cell-based, human
Protocol: A hPSC line engineered with TamCasp9 Construct 1 and an unedited parental control hPSC line were differentiated into myeloid progenitor cells through the addition of various growth factors and small molecules. Differentiated cells were plated at 1×10^5 cells/cm^2 in an ultra-low attachment cell culture plate for further myeloid cell maturation. After 7 days in maturation medium, cells were collected and frozen down.
For testing of TamCasp9 Safety Switch activation, myeloid cells were plated at 1.5×10^5 cells/cm^2 in a 96-well tissue culture plate with a 1:750 dilution of ViaStain AOPI Staining Solution (Nexcelom) in X-VIVO 15 Medium with 10 ng/mL GM-CSF. The kill switch was induced with 0, 1, 10 or 100 uM of Endoxifen over 3 days and images were collected every 6 hours on the Incucyte SX5 (Sartorius).
To better model predicted drug concentrations in a patient by testing activation of the kill switch against a range of tamoxifen metabolites, the PSC clone Construct 1 c.165, engineered to incorporate an exemplary modified ERT2 peptide-suicide protein fusion polypeptide construct (Table 3), was differentiated to myeloid progenitor cells as depicted in FIG. 13A. Differentiated cells were plated at 1×10^5 cells/cm^2 in an ultra-low attachment cell culture plate for further myeloid cell maturation. After 7 days in maturation medium, cells were collected and frozen down. For testing of TamCasp9 Safety Switch activation, myeloid cells were plated at 1.0×10^5 cells/cm^2 in a 96-well tissue culture plate with a 1:750 dilution of ViaStain AOPI Staining Solution (Nexcelom) in X-VIVO 15 Medium with 10 ng/mL GM-CSF. The kill switch was induced with varying concentrations of combination 4-OHT and Endoxifen treatment over 4 days and images were collected every 4 hours on the Incucyte SX5, with 12 hour timepoints plotted on a graph (Sartorius) (FIG. 14). Either 2.5 nM or 5 nM of Endoxifen was tested in combination with either 0.5 nM, 1 nM or 10 nM of 4-OHT. 100 nM Endoxifen was added as positive killing control as per FIG. 13E.

human iPSCs [2] = assay: Junction GAPT2A ddPCR of knock-in iPSC pools for integration at GAPDH locus, with or without 4-OHT; assay type: cell-based; conditions: pooled iPSCs treated with 1 nM 4-OHT
Protocol: Modified ERT2 peptide-suicide protein fusion polypeptide encoding constructs were delivered to human iPSCs via Nucleofection with a GAPDH targeting ribonucleoprotein (RNP) complex comprising of Cpf1 endonuclease and a single guide RNA (sgRNA) targeting the coding sequence of the GAPDH gene. The sgRNA comprised a sequence 5′ […] 3′ (SEQ ID NO: 60). Briefly, iPSCs were cultured in Essential 8 (E8) medium and maintained at 37° C. at 5% CO2 level between passages. Passages were done at 75 to 80% confluency. On the day of Nucleofection, iPSCs were thawed and immediately Nucleofected in Lonza P3 Primary Cell Nucleofection buffer. 7.5 μg of each plasmid construct (BRC00058-61) were Nucleofected into iPSCs using GAPDH Cpf1 RNP with LONZA 4D Nucleofector. The Nucleofected cells were then plated at 50,000 cells/cm^2 per well of a 6-well plate and grown in E8 medium (plus Rock inhibitor Y-27632 from Tocris) for 72 to 96 hours. Knock-in pools were screened for integration 7d post-Nucleofection using ddPCR, as well as conventional PCR.
Whereas the integration dropped from 5.7% to 1% in Construct 1-transfected cell pools and from 4.5% to 0.7% in Construct 2-transfected cell pools when treated with 1 nM 4-OHT (FIG. 4A).

iPSCs = assay: Apoptosis induction in transfected iPSCs monitored by microscopy and Incucyte tracking; assay type: cell-based, human; conditions: construct-transfected iPSCs, 1 nM 4-OHT, up to two days
human iPSCs [3] = assay: Flow cytometric analysis of cleaved Caspase-3 in transfected iPSCs; assay type: cell-based; conditions: 1 nM 4-OHT, two-day treatment
Excerpt: In another set of assessments, Construct 1 or Construct 2 transfected iPSCs were harvested for flow cytometric analysis. The primary antibody used was an anti-human/mouse cleaved Caspase-3. The primary antibody detects human and mouse Caspase 3 cleaved at Asp175.

| Molecule | fusion polypeptide sequence integration (junction GAPT2A ddPCR) (human iPSCs [2]) | apoptosis / cell killing (iPSCs) | apoptosis (cleaved Caspase-3 flow cytometry) (human iPSCs [3]) | further results |
| --- | --- | --- | --- | --- |
| CC/C(=C(\c1ccc(O)cc1)c1ccc(OCCNC)cc1)c1ccccc1 [Endoxifen, endoxifen, reference compound] |  |  |  | lowest effective concentration in 4-OHT-Endoxifen combination (iPSC clones; clone Construct 1 c.165): 1.25 nM; apoptosis in unedited cells ([1]; unedited differentiated myeloid progenitors, combination 4-OHT and Endoxifen treatment): did not induce apoptosis |
| Construct 1: GAPDH-targeting construct encoding modified ERT2 peptide-suicide protein fusion polypeptide ERT2*mut81-Casp9, SEQ ID NO: 44 (protein) AGDMRAANLWPSPLMIKRSKKNSLALSLTADQMVSALLDAEPPILYSEYDPTRPFSEASMMGLLTNLADRELVHMINWAKRVPGFVDLTLHDQVHLLECAWMEILMIGVVWRSMEHPVKLLFAPNLLLDRDQGKCVEGLVEIFDMLLATSSRFRMMNLQGEEFVCLKSIILLNSGVYTFLPSTLKSLEEKDHIHRVLDKITDTLIHLMAKAGLTLQQQHQRLAQLLLILSHIRHMSNKGMELLYSMKCKNVVPLYDLLLEAADAHRLHAPTSRGGASVEETDQSHLATAGSTSSHSLQKYYITGEAEGFPATGGGGSGGGGSGGGGSVDGFMDVGALESLRGNADLAYILSMEPCGHCLIINNVNFCRESGLRTRTGSNIDCEKLRRRFSSLHFMVEVKGDLTAKKMVLALLELARQDHGALDCCVVVILSHGCQASHLQFPGAVYGTDGCPVSVEKIVNIFNGTSCPSLGGKPKLFFIQACGGEQKDHGFEVASTSPEDESPGSNPEPDATPFQEGLRTFDQLDAISSLPTPSDIFVSYSTFPGFVSWRDPKSGSWYVETLDDIFEQWAHSEDLQSLLLRVANAVSVKGIYKQMPGCFNFLRKKLFFKTS | 1% | cells were completely killed by day 2 | able to induce apoptosis in the majority of the cells | apoptotic (killing) efficacy (iPSC clones; 1 nM 4-OHT): displayed higher efficacy than Construct 2-4 clones; also recorded: highest apoptotic efficacy; apoptotic (killing) efficacy (iPSC clones; 1 nM Endoxifen, compared to hygromycin control): approached the level of apoptosis by hygromycin control at 24 hours; apoptosis (kill switch activity) ([1]; 0, 1, 10 or 100 uM of Endoxifen over 3 days): induced apoptosis following endoxifen treatment |
| Construct 2: GAPDH-targeting construct encoding fusion polypeptide ERT2*mut88-Casp9, SEQ ID NO: 46 (protein) AGDMRAANLWPSPLMIKRSKKNSLALSLTADQMVSALLDAEPPILYSEYDPTRPFSEASMMGLLTNLADRELVHMINWAKRVPGFVDLTLHDQVHLLECAWLEILMIGVVWRSMEHPVKLLFAPNLLLDRDEGKCVEGMVEIFDMLLATSSRFRMMNLQGEEFVCLKSIILLNSGVYTFLPSTLKSLEEKDHIHRVLDKITDTLIHLMAKAGLTLQQQHQRLAQLLLILSHIRHMSNKGMEFLYSMKCKNVVPLYDLLLEAADAHRLHAPTSRGGASVEETDQSHLATAGSTSSHSLQKYYITGEAEGFPATGGGGSGGGGSGGGGSVDGFMDVGALESLRGNADLAYILSMEPCGHCLIINNVNFCRESGLRTRTGSNIDCEKLRRRFSSLHFMVEVKGDLTAKKMVLALLELARQDHGALDCCVVVILSHGCQASHLQFPGAVYGTDGCPVSVEKIVNIFNGTSCPSLGGKPKLFFIQACGGEQKDHGFEVASTSPEDESPGSNPEPDATPFQEGLRTFDQLDAISSLPTPSDIFVSYSTFPGFVSWRDPKSGSWYVETLDDIFEQWAHSEDLQSLLLRVANAVSVKGIYKQMPGCFNFLRKKLFFKTS | 0.7% | did not induce apoptosis | failed to do so | apoptotic (killing) efficacy (iPSC clones; 5 nM 4-OHT): able to induce apoptosis; apoptotic (killing) efficacy (iPSC clones; 10 nM Endoxifen, compared to hygromycin kill control): able to induce apoptosis |
| Construct 4: GAPDH-targeting construct encoding fusion polypeptide ERT2*mut41-Casp9, SEQ ID NO: 50 (protein) AGDMRAANLWPSPLMIKRSKKNSLALSLTADQMVSALLDAEPPILYSEYDPTRPFSEASMMGLLTNLADREIVHMINWAKRVPGFVDLTLHDQVHLLECAWLEILMIGVVWRSMEHPVKLLFAPNLVLDRDEGKCVEGMVEIFDMLLATSSRFRMMNLQGEEFVCLKSIILLNSGVYTFLSSTLKSLEEKDHIHRVLDKITDTLIHLMAKAGLTLQQQHQRLAQLLLILSHIRHMSNKGMELLYSMKCKNVVPLYDLLLEAADAHRLHAPTSRGGASVEETDQSHLATAGSTSSHSLQKYYITGEAEGFPATGGGGSGGGGSGGGGSVDGFMDVGALESLRGNADLAYILSMEPCGHCLIINNVNFCRESGLRTRTGSNIDCEKLRRRFSSLHFMVEVKGDLTAKKMVLALLELARQDHGALDCCVVVILSHGCQASHLQFPGAVYGTDGCPVSVEKIVNIFNGTSCPSLGGKPKLFFIQACGGEQKDHGFEVASTSPEDESPGSNPEPDATPFQEGLRTFDQLDAISSLPTPSDIFVSYSTFPGFVSWRDPKSGSWYVETLDDIFEQWAHSEDLQSLLLRVANAVSVKGIYKQMPGCFNFLRKKLFFKTS | 2.3% | cells were completely killed by day 2 |  |  |
| Construct 3: GAPDH-targeting construct encoding fusion polypeptide ERT2*mut63-Casp9, SEQ ID NO: 48 (protein) AGDMRAANLWPSPLMIKRSKKNSLALSLTADQMVSALLDAEPPILYSEYDPTRPFSEASMMGLLTNLADREIVHMINWAKRVPGFVDLTLHDQVHLLECAWLEILMIGVVWRSMEHPVKLLFAPNLLLDRDEGKCVEGLVEIFDMLLATSSRFRMMNLQGEEFVCLKSIILLNSGVYTFLSSTLKSLEEKDHIHRVLDKITDTLIHLMAKAGLTLQQQHQRLAQLLLILSHIRHASNKGMEFLYSMKCKNVVPLYDLLLEAADAHRLHAPTSRGGASVEETDQSHLATAGSTSSHSLQKYYITGEAEGFPATGGGGSGGGGSGGGGSVDGFMDVGALESLRGNADLAYILSMEPCGHCLIINNVNFCRESGLRTRTGSNIDCEKLRRRFSSLHFMVEVKGDLTAKKMVLALLELARQDHGALDCCVVVILSHGCQASHLQFPGAVYGTDGCPVSVEKIVNIFNGTSCPSLGGKPKLFFIQACGGEQKDHGFEVASTSPEDESPGSNPEPDATPFQEGLRTFDQLDAISSLPTPSDIFVSYSTFPGFVSWRDPKSGSWYVETLDDIFEQWAHSEDLQSLLLRVANAVSVKGIYKQMPGCFNFLRKKLFFKTS | 1.4% | cells were completely killed by day 2 |  |  |
